Source: patent publication US20180282403A1, “AGENTS FOR REDUCING THE ACTIVITY OF GDF15” (GENAGON THERAPEUTICS AB, priority 2015, published 2018)
One block for each molecule: values may come before it.

T1: QRFPR (Homo sapiens, UniProt Q96P65)
T1 construct: endogenous in cells
T1 sequence (Q96P65 1-431): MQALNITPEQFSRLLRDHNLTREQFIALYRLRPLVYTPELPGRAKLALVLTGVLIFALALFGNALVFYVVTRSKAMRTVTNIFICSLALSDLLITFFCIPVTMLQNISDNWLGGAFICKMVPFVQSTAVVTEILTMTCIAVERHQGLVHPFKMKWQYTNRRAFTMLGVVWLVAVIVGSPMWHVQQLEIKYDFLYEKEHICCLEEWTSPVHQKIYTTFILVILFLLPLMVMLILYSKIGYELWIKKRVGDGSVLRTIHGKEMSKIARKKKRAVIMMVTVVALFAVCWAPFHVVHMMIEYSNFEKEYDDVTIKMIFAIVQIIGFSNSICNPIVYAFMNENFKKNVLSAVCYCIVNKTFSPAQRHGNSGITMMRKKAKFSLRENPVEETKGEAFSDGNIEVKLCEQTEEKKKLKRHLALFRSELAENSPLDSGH

T2: GDF15 (Homo sapiens, UniProt Q99988)
T2 construct: purchased Abcam
T2 sequence (Q99988 197-308 limits assumed): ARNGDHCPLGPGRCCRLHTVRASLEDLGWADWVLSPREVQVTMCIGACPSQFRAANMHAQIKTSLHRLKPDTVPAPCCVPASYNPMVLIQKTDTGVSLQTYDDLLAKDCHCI

T3: Growth and differentiation factor 15 (GDF15) (UniProt Q99988 197-308, limits assumed)
T3 construct: Purchased GDF15 added to cells, pull-downs, peptide arrays and ELISA; also called MIC1
T3 sequence (looked up): T2 sequence (Q99988 197-308 limits assumed)

T4: Cleft Lip and Palate Transmembrane protein 1 (CLPTM1) (human, UniProt O96005 2-669)
T4 construct: Endogenous receptor of NK-92 cells, CD14+ cells and human tissues
T4 sequence: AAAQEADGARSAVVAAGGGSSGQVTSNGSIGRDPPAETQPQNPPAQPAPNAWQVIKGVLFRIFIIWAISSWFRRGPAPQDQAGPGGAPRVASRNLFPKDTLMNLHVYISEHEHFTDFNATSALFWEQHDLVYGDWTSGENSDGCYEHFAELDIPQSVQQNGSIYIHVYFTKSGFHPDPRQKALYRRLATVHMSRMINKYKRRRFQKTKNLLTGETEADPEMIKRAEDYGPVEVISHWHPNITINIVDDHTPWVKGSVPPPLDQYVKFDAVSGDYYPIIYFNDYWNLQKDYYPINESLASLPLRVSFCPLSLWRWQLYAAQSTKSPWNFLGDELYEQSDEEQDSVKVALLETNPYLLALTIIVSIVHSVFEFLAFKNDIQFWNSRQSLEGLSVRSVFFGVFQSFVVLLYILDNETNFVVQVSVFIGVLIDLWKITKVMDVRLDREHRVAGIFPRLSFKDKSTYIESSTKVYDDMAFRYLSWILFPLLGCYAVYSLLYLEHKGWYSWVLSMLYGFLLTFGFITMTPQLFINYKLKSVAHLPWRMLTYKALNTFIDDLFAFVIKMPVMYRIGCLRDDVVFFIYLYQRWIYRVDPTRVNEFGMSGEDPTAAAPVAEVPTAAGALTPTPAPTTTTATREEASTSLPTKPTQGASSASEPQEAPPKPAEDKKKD

B1: pyroglutamylated RFamide Peptide Receptor (QRFPR) (receptor)
chain: T1 sequence (Q96P65 1-431)
notes: Endogenous receptor of MCF-7 / U2OS cells and human tissues; also called GPR103; orexigenic neuropeptide QRFP receptor
B2: AP1 (control protein): AAAQEADGARSAVVAAGGGSSGQVTSNGSIGRDPPAETQPQNPPAQPAPNAGGGGSGGGGSGGGGS-Fc mouse IgG1 (Fc fusion, not shown: a dimerising Fc or GST)
chain: AAAQEADGARSAVVAAGGGSSGQVTSNGSIGRDPPAETQPQNPPAQPAPNAGGGGSGGGGSGGGGS
notes: also called control polypeptide
B3: endogenous GDF15 (in MCF-7 cells treated with Sulindac sulphide and in human tumour tissue arrays) (ligand, UniProt Q99988 197-308, looked up)
chain: T2 sequence (Q99988 197-308 limits assumed)
notes: Detected in complex with receptors by in situ PLA

Key:
[1] = system: QRFPR; assay: In situ detection of QRFPR at the cell surface after GDF15 with or without peptide (FIG. 10A-C); format: cell-based; details: cells exposed to GDF15 + synthetic peptide
Source text: (§1) A-C) In situ detection of QRFPR at the cell surface. A) Negative control cells with no added GDF15. B) Cells after exposure to GDF15. C) Cells after exposure to GDF15+ synthetic peptide GEKEYDDVTIK derived from extracellular domain 4 of QRFPR. […] D-F) In situ PLA detection of ACTRIIB at the cell surface. D) Control cells with no added P518. E) Cells after exposure to P518. F) Cells after exposure to P518+ synthetic peptide GEKEYDDVTIK derived from extracellular domain 4 of QRFPR in 125 molar excess. The ability of P518 to increase the level of ACTRIIB at the cell surface was not affected by the peptide.
FIGS. 10A-10C confirm that GDF15 reduces the level of QRFPR at the cell surface, and that this reduction may be reversed by a peptide derived from extracellular loop 3 (extracellular domain 4) of QRFPR.

[2] = target: T1, QRFPR; assay: ACTRIIB assay: in situ PLA detection of ACTRIIB at the cell surface after QRFPR agonist P518; format: cell-based; details: P518 + peptide in 125 molar excess, FIG. 10D-F
Source text: as §1
The effect of the QRFPR agonist p518 was measured. In short, p518/QRFP-26 was purchased from Phoenix Peptides, CA and processed according to the manufacturer's instructions. Cells were serum-starved prior to P518 stimulation overnight.
P518 was mixed with either PBS or QRFPR receptor fragment dissolved in PBS prior to stimulation of cells.

[3] = system: QRFPR; assay: In situ PLA detection of RAB11-QRFPR double positive endosomes in MCF7 cells; format: cell-based; details: MCF7 cells; GDF15 pre-incubated with receptor fragment; FIG. 9A-D
Source text: The RAB11 protein is a marker for recycling endosomes back to the cell surface, and the RAB11 pathway is also involved in exosome assembly (Savina et al., 2005; Savina et al., 2002). RAB11 was thus thought to be a likely candidate to be involved in QRFPR reduction on the cell surface induced by GDF15
An in situ PLA assay was developed to detect the proximity of RAB11 and QRFPR. In the absence of GDF15, only a low signal is observed (FIGS. 5A and 5C).
(§2) We choose to use this assay as a way to investigate if the activity of GDF15 could be inhibited by various agents. […] GDF15-induced formation of RAB11/QRFPR endosomes is inhibited by QRFPR peptides (FIG. 9A-D). Equal amounts of a mastermix of GDF15 was aliquoted and pre-incubated in PBS with the various receptor fragment before addition to cells. Sequentially, the cells were treated with either PBS, GDF15 or GDF15/QRFPR-derived peptide mixes.

[4] = system: QRFPR; assay: In situ PLA detection of QRFPR at the cell surface in U2OS osteosarcoma cells; format: cell-based; details: U2OS osteosarcoma cells; GDF15 + peptide; FIG. 9E
Source text: A-D) In situ PLA detection of the Rab11-QRFPR complex following exposure of MCF7 cells to GDF15. A) +Ctrl peptide. B) +QRFPR extracellular N-terminal peptide. C-D) +QRFPR extracellular loop3 (domain 4) peptide. The level of the Rab11-QRFPR complex is reduced by the peptide from extracellular loop3 of QRFPR. E) in situ PLA detection of QRFPR in U2OS osteosarcoma cells.
as §2

[5] = target: T2, GDF15; assay: GST-pulldowns of GDF15 with GST-fusion QRFPR and CLPTM1 fragments; format: binding; details: equal amounts of GST-fusion protein and GDF15, 4 hrs at 4° C., extensive washes incl. high salt; FIG. 8B
Method: We then assembled the GDF15 binding motifs from QRFPR and CLPTM1 using synthetic hybridized oligonucleotides corresponding to the motifs from either extracellular domain 3, 4 (QRFPR) or CLPTM1. The oligonucleotides were inserted in a pGEX4T1 backbone, expressed in BL21 DE3pLys bacteria and purified. The correct sequences were confirmed by Sanger sequencing.
We then incubated the purified GST-fusion proteins with equal amounts of GDF15 and subjected the analytes to extensive washes including high salt buffers.
In short, selected fragments of the receptors were constructed from synthetic oligomers (ultramers, IDT technologies), the flanking ends digested by restriction enzymes, and inserted in a pGEX 4T-1 vector (Pharmacia Biotech). The constructs were cloned in a DH5 a library efficiency bacteria (Invitrogen). The correct clones were identified by analytical restriction digest run on a 2% agarose gel, and validated by Sanger sequencing at the Uppsala sequencing centre.
The validated clones were used to transform BL21pLYs bacteria. […]
The material was denatured by boiling in SDS loading dye supplemented with DDT for 5 min, then run on a 12% acrylamide gel (120 V for 70 min) and analysed by ECL and CCD camera (Biorad). […]

[6] = target: T5, ACTRIIB (UniProt Q13705 19-512, limits assumed); assay: in situ PLA on serum-starved MCF7 cells
T5 construct: whole, on cells; also called activin type II receptor B
T5 sequence (Q13705 19-512 limits assumed): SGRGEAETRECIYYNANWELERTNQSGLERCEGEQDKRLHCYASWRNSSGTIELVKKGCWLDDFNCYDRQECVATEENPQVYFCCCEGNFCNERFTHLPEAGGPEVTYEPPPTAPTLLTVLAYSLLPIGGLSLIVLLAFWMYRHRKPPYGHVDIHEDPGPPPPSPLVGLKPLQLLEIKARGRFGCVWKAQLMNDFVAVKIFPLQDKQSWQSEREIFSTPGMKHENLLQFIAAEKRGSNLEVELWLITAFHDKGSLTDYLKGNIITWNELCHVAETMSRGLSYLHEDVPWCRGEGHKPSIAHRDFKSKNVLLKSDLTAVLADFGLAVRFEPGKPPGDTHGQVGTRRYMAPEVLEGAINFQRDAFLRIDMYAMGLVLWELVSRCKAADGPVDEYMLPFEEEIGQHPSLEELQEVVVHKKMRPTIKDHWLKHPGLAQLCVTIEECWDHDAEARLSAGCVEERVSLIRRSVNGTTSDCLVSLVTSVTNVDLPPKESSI
Method: MCF7 cells were stimulated with GDF15 (GDF15 from isolated mammalian source or recombinant derived from E. coli purchased from Abcam and Biovision). An assay was developed for monitoring the activity of GDF15 and to investigate the dynamics of receptor(s) such as QRFPR modulation by the ligand.
Serum-starved MCF7 cells were treated with GDF15, and an in situ PLA detection assay was developed to detect the interaction between ACTRIIB and QRFPR using antibodies from two different species, thus allowing the use of Duolink secondary detection reagents. The presence of the QRFPR-ACTRIIB complex was detected in the absence of GDF15 (see FIG. 3A, indicated by arrows).

[7] = target: T3, Growth and differentiation factor 15 …; assay: Fc-fusion pull-down, said to agree with the array results
Method: 20 μg Fc fusion protein constructs were incubated with 0.5 μg GDF15 and protein-G bead with mixing for 6 hrs in +4 C in PBST+1% BSAs. Wash 6 times: 3 times PBST, change tubes, 2 washes PBST+220 mM NaCl. Last wash PBS. The beads were collected using a table-top centrifuge set at 500 g for 5 minutes between washes. Detection The material was loaded on a 4-12% gradient gel, run at 100 volt, transferred to PVDF membrane using a Turbo Tank blot system, blocked by PBS with 3% BSA 1 hr RT, and incubated with RD systems a monoclonal anti-GDF15 antibody overnight. A secondary antibody: mouse HRP 1:2000 was used for detection. The size of band was estimated by comparing with a seeblue2 protein ladder marker run in an adjacent lane.

[8] = target: T4, Cleft Lip and Palate Transmembrane …; assay: in situ PLA on tissue micro array
[9] = target: B1; assay: in situ PLA on tissue micro array

P518 induced ACTRIIB levels [2]: not affected
P518 induced ACTRIIB levels ([2]; listed as QRFPR receptor fragment): slight increase of ACTRIIB
Molecule: GEKEYDDVTIK [synthetic peptide derived from extracellular domain 4 of QRFPR]
QRFPR at the cell surface [1]: reversed the removal of QRFPR from the cell surface
GDF15-induced RAB11-QRFPR double positive endosomes [3]: substantially reduced
level of QRFPR detected at the cell surface [4]: restore the level of QRFPR detected at the cell surface to the same level as control cells

GDF15 binding to GST-fusion protein (GST-pulldown) [5]: Increased binding
Molecule: ALFWEQHDLVYGDWTS (listed as Homo sapiens) [SEQ ID NO:18]

GDF15 binding to GST-fusion protein (GST-pulldown) [5]: Increased binding
Molecule: EIKYDFLYEKEHICCLEEWTS (listed as Homo sapiens) [SEQ ID NO:7]

Molecule: B1
binding result [6]: binds

Molecule: B2
binding result [7]: no binding

Molecule: B3
binding result [8]: binds
binding result [9]: binds
